Here are results for 22 molecules from patent US20240059797A1 (GRITSTONE BIO, published 2024).

The labels stand for the following.
B1: G5(1E05) scFv (scFv, V domains shown)
VH: QVQLVQSGAEVKKPGASVKVSCKASGYTFTSYNMHWVRQAPGQGLEWMGWINPNSGGTNYAQKFQGRVTMTRDTSTSTVYMELSSLRSEDTAVYYCARDVMDVWGQGTTVTVSS
VL: DIQMTQSPSSLSASVGDRVTITCRASQGISNYLNWYQQKPGKAPKLLIYYASSLQSGVPSRFSGSGSGTDFTLTISSLQPEDFATYYCQQTYMMPYTFGQGTKVEIK
B2: G5(4B02) scFv (scFv, V domains shown)
VH: QVQLVQSGAEVKKPGASVKVSCKASGYTFTGYYMHWVRQAPGQGLEWMGWMNPNIGNTGYAQKFQGRVTMTRDTSTSTVYMELSSLRSEDTAVYYCARGIADSGSYYGNGRDYYYGMDVWGQGTTVTVSS
VL: DIVMTQSPDSLAVSLGERATINCKTSQSVLYRPNNENYLAWYQQKPGQPPKLLIYQASIREPGVPDRFSGSGSGTDFTLTISSLQAEDVAVYYCQQYYTTPYTFGQGTKLEIK
B3: G5(1D06) scFv (scFv, V domains shown)
VH: QVQLVQSGAEVKKPGASVKVSCKASGYTFTSYDINWVRQAPGQGLEWMGWINPNSGDTKYSQKFQGRVTMTRDTSTSTVYMELSSLRSEDTAVYYCARDGTRYYGMDVWGQGTTVTVSS
VL: not shown
B4: G5(1H11) scFv (scFv, V domains shown)
VH: EVQLLESGGGLVKPGGSLRLSCAASGFTFSDYYMSWVRQAPGKGLEWVSYISSSSSYTNYADSVKGRFTISRDDSKNTLYLQMNSLKTEDTAVYYCARDVVANFDYWGQGTLVTVSS
VL: EIVMTQSPATLSVSPGERATLSCRASQSVSSNLAWYQQKPGQAPRLLIYAASARASGIPARFSGSGSGTEFTLTISSLQSEDFAVYYCQQYGSWPRTFGQGTKVEIK
B5: G5(3G01) scFv (scFv, V domains shown)
VH: QVQLVQSGAEVKKPGASVKVSCKASGGTFSGYLVSWVRQAPGQGLEWMGWINPNSGGTNTAQKFQGRVTMTRDTSTSTVYMELSSLRSEDTAVYYCAREGYGMDVWGQGTTVTVSS
VL: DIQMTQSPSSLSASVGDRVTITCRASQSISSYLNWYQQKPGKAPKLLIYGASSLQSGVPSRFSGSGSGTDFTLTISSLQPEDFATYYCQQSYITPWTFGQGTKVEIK
B6: G5(1B12) scFv (scFv, V domains shown)
VH: EVQLLESGGGLVQPGGSLRLSCAASGFTFSNSDMNWVRQAPGKGLEWVASISSSGGYINYADSVKGRFTISRDNSKNTLYLQMNSLRAEDTAVYYCAKVNWNDGPYFDYWGQGTLVTVSS
VL: DIQMTQSPSSLSASVGDRVTITCRASQSISSWLAWYQQKPGKAPKLLIYAASSLQSGVPSRFSGSGSGTDFTLTISSLQPEDFATYYCQQANSFPLTFGGGTKVEIK
B7: G5(4E04) scFv (scFv, V domains shown)
VH: QVQLVQSGAEVKKPGASVKVSCKASGGTFSSYGISWVRQAPGQGLEWMGWINPNSGVTKYAQKFQGRVTMTRDTSTSTVYMELSSLRSEDTAVYYCARGDYYFDYWGQGTLVTVSS
VL: DIQMTQSPSSLSASVGDRVTITCRASQSISRFLNWYQQKPGKAPKLLIYGASRPQSGVPSRFSGSGSGTDFTLTISSLQPEDFATYYCQQSYSTPLTFGQGTKVEIK
B8: G5(1C12) scFv (scFv, V domains shown)
VH: QVQLVQSGAEVKKPGSSVKVSCKASGGTFSNFGVSWLRQAPGQGLEWMGGIIPILGTANYAQKFQGRVTITADESTSTAYMELSSLRSEDTAVYYCATPTNSGYYGPYYYYGMDVWGQGTTVTVSS
VL: DIQMTQSPSSLSASVGDRVTITCRASQSISSWLAWYQQKPGKAPKLLIYAASTLQSGVPSRFSGSGSGTDFTLTISSLQPEDFATYYCQQSYSIPLTFGGGTKVEIK
notes: also called G5-P1C12
B9: G5(3G08) scFv (scFv, V domains shown)
VH: QVQLVQSGAEVKKPGASVKVSCKASGYIFRNYPMHWVRQAPGQGLEWMGWINPDSGGTKYAQKFQGRVTMTRDTSTSTVYMELSSLRSEDTAVYYCARDNGVGVDYWGQGTLVTVSS
VL: DIQMTQSPSSLSASVGDRVTITCRASQGISNYLAWYQQKPGKAPKLLIYAASSLQSGVPSRFSGSGSGTDFTLTISSLQPEDFATYYCQQSYITPYTFGQGTKLEIK
B10: G10(4A02) scFv (scFv, V domains shown)
VH: QVQLVQSGAEVKKPGASVKVSCKASGYTLSYYYMHWVRQAPGQGLEWMGMIGPSDGSTSYAQRFQGRVTMTRDTSTGTVYMELSSLRSEDTAVYYCARDTGDHFDYWGQGTLVTVSS
VL: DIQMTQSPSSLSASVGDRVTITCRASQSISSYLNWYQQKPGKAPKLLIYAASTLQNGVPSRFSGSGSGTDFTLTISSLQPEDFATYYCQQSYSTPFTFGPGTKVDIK
B11: G10(4G06) scFv (scFv, V domains shown)
VH: QVQLVQSGAEVKKPGASVKVSCKASGYTLSYYYMHWVRQAPGQGLEWMGMIGPSDGSTSYAQRFQGRVTMTRDTSTGTVYMELSSLRSEDTAVYYCARDTGDHFDYWGQGTLVTVSS
VL: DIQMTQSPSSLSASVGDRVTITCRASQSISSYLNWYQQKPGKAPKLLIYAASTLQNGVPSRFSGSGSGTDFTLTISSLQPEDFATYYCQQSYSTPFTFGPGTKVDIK
B12: G10(4C05) scFv (scFv, V domains shown)
VH: QVQLVQSGAEVKKPGASVKVSCKASGYTFTGYYMHWVRQAPGQGLEWMGIIGPSDGSTTYAQKFQGRVTMTRDTSTSTVYMELSSLRSEDTAVYYCARAENGMDVWGQGTTVTVSS
VL: DIQMTQSPSSLSASVGDRVTITCRASQRISSYLNWYQQKPGKAPKLLIYSASTLQSGVPSRFSGSGSGTDFTLTISSLQPEDFATYYCQQSYSTPFTFGPGTKVDIK
B13: G10(1F06) scFv (scFv, V domains shown)
VH: QVQLVQSGAEVKKPGASVKVSCKASGYTFIGYYMHWVRQAPGQGLEWMGMIGPSDGSTSYAQKFQGRVTMTRDTSTSTVYMELSSLRSEDTAVYYCARDSSGLDPWGQGTLVTVSS
VL: DIQMTQSPSSLSASVGDRVTITCRASQSISNYLNWYQQKPGKAPKLLIYKASSLESGVPSRFSGSGSGTDFTLTISSLQPEDFATYYCQQSYIIPYTFGQGTKLEIK
B14: G10(5C08) scFv (scFv, V domains shown)
VH: QVQLVQSGAEVKKPGASVKVSCKASGYNFTGYYMHWVRQAPGQGLEWMGIIAPSDGSTNYAQKFQGRVTMTRDTSTSTVYMELSSLRSEDTAVYYCARETGDDAFDIWGQGTMVTVSS
VL: not shown
B15: G10(2C04) scFv (scFv, V domains shown)
VH: QVQLVQSGAEVKKPGASVKVSCKASGGTFSNSIINWVRQAPGQGLEWMGWMNPNSGNTNYAQKFQGRVTMTRDTSTSTVYMELSSLRSEDTAVYYCAREQWPSYWYFDLWGRGTLVTVSS
VL: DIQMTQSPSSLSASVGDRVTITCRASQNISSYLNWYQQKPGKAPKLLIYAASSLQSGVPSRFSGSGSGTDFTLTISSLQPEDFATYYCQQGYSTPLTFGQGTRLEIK
B16: G10(4D04) scFv (scFv, V domains shown)
VH: QVQLVQSGAEVKKPGASVKVSCKASGYTFTGYYVHWVRQAPGQGLEWMGIIAPSDGSTNYAQKFQGRVTMTRDTSTSTVYMELSSLRSEDTAVYYCARDPGGYMDVWGKGTTVTVSS
VL: DIQMTQSPSSLSASVGDRVTITCRASQSISSYLAWYQQKPGKAPKLLIYDASKLETGVPSRFSGSGSGTDFTLTISSLQPEDFATYYCQQSYGVPTFGQGTKLEIK
B17: G10(4E07) scFv (scFv, V domains shown)
VH: QVQLVQSGAEVKKPGSSVKVSCKASGYTFTGYYMHWVRQAPGQGLEWMGRISPSDGSTTYAPKFQGRVTITADESTSTAYMELSSLRSEDTAVYYCARDMGDAFDIWGQGTTVTVSS
VL: not shown
B18: G10(1H08) scFv (scFv, V domains shown)
VH: QVQLVQSGAEVKKPGASVKVSCKASGVTFSTSAISWVRQAPGQGLEWMGWISPYNGNTDYAQMLQGRVTMTRDTSTSTVYMELSSLRSEDTAVYYCARDAHQYYDFWSGYYSGTYYYGMDVWGQGTTVTVSS
VL: DIQMTQSPSSLSASVGDRVTITCRASQGISNYLAWYQQKPGKAPKLLIYSASNLQSGVPSRFSGSGSGTDFTLTISSLQPEDFATYYCQQAYSFPWTFGQGTKVEIK
B19: G10(4D10) scFv (scFv, V domains shown)
VH: QVQLVQSGAEVKKPGASVKVSCKASGYTFTGYYLHWVRQAPGQGLEWMGMIGPSDGSTSYAQKFQGRVTMTRDTSTSTVYMELSSLRSEDTAVYYCARDGDAFDIWGQGTMVTVSS
VL: DIQMTQSPSSLSASVGDRVTITCRASQGISSWLAWYQQKPGKAPKLLIYDASNLETGVPSRFSGSGSGTDFTLTISSLQPEDFATYYCQQSYSTPLTFGGGTKVEIK
B20: G10(3E04) scFv (scFv, V domains shown)
VH: QVQLVQSGAEVKKPGASVKVSCKASGNTFIGYYVHWVRQAPGQGLEWVGIINPNGGSISYAQKFQGRVTMTRDTSTSTVYMELSSLRSEDTAVYYCARGSGDPNYYYYYGLDVWGQGTTVTVSS
VL: DIQMTQSPSSLSASVGDRVTITCQASQDISNYLNWYQQKPGKAPKLLIYAASNLQSGVPSRFSGSGSGTDFTLTISSLQPEDFATYYCQQANSLPYTFGQGTKVEIK
B21: G10(1H01) scFv (scFv, V domains shown)
VH: QVQLVQSGAEVKKPGASVKVSCKASGYTFTGYYMHWVRQAPGQGLEWMGMIGPSDGSTSYAQKFQGRVTMTRDTSTSTVYMELSSLRSEDTAVYYCARGVGNLDYWGQGTLVTVSS
VL: DIQMTQSPSSLSASVGDRVTITCRASQSISNYLNWYQQKPGKAPKLLIYAASSLQSGVPSRFSGSGSGTDFTLTISSLQPEDFATYYCHQTYSTPLTFGQGTKVEIK
B22: G10(2G11) scFv (scFv, V domains shown)
VH: QVQLVQSGAEVKKPGASVKVSCKASGGTFSTHDINWVRQAPGQGLEWMGVINPSGGSAIYAQKFQGRVTMTRDTSTSTVYMELSSLRSEDTAVYYCARDRGYSYGYFDYWGQGTLVTVSS
VL: DIQMTQSPSSLSASVGDRVTITCRASQDISRYLAWYQQKPGKAPKLLIYDASNLETGVPSRFSGSGSGTDFTLTISSLQPEDFATYYCQQANSFPRTFGQGTKVEIK

In the first assay the target is T1, HLA-B*35:01_… (HLA-PEPTIDE target G5), recombinant biotinylated complex (human, enzymatically biotinylated (BirA)).
T1 construct: also called G5-pHLA
Briefly: scFv PPE ELISA.
For B1, the “fold selective binding to target pHLA over minipool of negative control pHLAs” value (“fold selective binding to target pHLA” below) is at least 3 fold.

In the case of B2, the “fold selective binding to target pHLA” value is at least 3 fold.

Consider B3, for which the “fold selective binding to target pHLA” value is at least 3 fold.

For the molecule B4, the “fold selective binding to target pHLA” value was at least 3 fold.

Take B5: the “fold selective binding to target pHLA” value was at least 3 fold.

Regarding B6, the “fold selective binding to target pHLA” value was at least 3 fold.

B7: the “fold selective binding to target pHLA” value was at least 3 fold.

Regarding B8, the “fold selective binding to target pHLA” value was at least 3 fold.

B9: the “fold selective binding to target pHLA” value is at least 3 fold.

In another assay the target is HLA-A*01:01_… (HLA-PEPTIDE target G10), recombinant biotinylated complex (human, enzymatically biotinylated (BirA)). As to the kind of experiment: scFv PPE ELISA. For orientation: In an ELISA, binding on a coated surface is turned into a signal by an enzyme label.
Regarding B10, the “fold selective binding to target pHLA” value is at least 3 fold.

As for B11, the “fold selective binding to target pHLA” value is at least 3 fold.

For the molecule B12, the “fold selective binding to target pHLA” value was at least 3 fold.

For the molecule B13, the “fold selective binding to target pHLA” value was at least 3 fold.

For the molecule B14, the “fold selective binding to target pHLA” value was at least 3 fold.

For the molecule B15, the “fold selective binding to target pHLA” value was at least 3 fold.

Turning to B16, the “fold selective binding to target pHLA” value was at least 3 fold.

Consider B17, for which the “fold selective binding to target pHLA” value is at least 3 fold.

Turning to B18, the “fold selective binding to target pHLA” value was at least 3 fold.

B19: the “fold selective binding to target pHLA” value was at least 3 fold.

For B20, the “fold selective binding to target pHLA” value is at least 3 fold.

Turning to B21, the “fold selective binding to target pHLA” value was at least 3 fold.

For the molecule B22, the “fold selective binding to target pHLA” value is at least 3 fold.
